# Reference: patent publication US20170247475A1 (Boehringer Ingelheim, published 2017)
# Where a chain is given by its changes, count along the chain named.
# B1: VEGFBII88A02 (VHH)
# VHH: EVQLVESGGGLVQAGGSLRLSCAASGFTFGDYDIGWFRQAPGNEREGVSCITTDVGTTYYADSVKGRFTISSDNAKNTVYLQINDLKPEDTAIYYCAVDTQDLGLDIFCRGNGPFDGWGQGTQVTVSS
# B2: VEGFBII09F05 (VHH)
# VHH: EVQLVESGGGLVQAGGSLRLSCAASGRTFSTDDVGWFRQAPGKEREFVAVIRWSTGGTYTSDSVKGRFTLSRDNAKNTMYLQMNSLKPEDTAVYYCAARSRPLGAGAWYTGETRYNYWGQGTQVTVSS
# B3: VEGFBII09A12 (VHH)
# VHH: B2 VHH with K65A, N116D, Y117S
# B4: VEGFBII16C03 (VHH)
# VHH: B2 VHH with G8E, T113N, R114Y
# B5: VEGFBII87B07 (VHH)
# VHH: EVQLVESGGGLVQPGGSLKLSCTASGFTFSTSWMHWVRQAPGKGLEWVSSIPPVGHFANYAPSVKGRFTISRDNAKNTLFLQMNSLKSEDTAVYYCAKDSAGRTKGQGTQVTVSS
# B6: VEGFBII12B01 (VHH)
# VHH: EVQLVESGGGLVQPGGSLRLACAASGFTLSSSWMYWVRQAPGKGLEWVSRISPGGLFTYYVDSVKGRFSVSTDNANNTLYLQMNSLKPEDTALYSCAKGGAPNYTPRGRGTQVTVSS
# B7: VEGFBII86G11 (VHH)
# VHH: EVQLVESGGGLVQAGGSLRLSCAASGLTFSLYTVGWFRQAPGKEREFVAYISRSGSNRYYVDSVKGRFTLSRDNAKNTVDLQMNSLKTEDTAVYYCAATSRGLSSLAGEYNYWGRGTQVTVSS
# B8: VEGFBII12A07 (VHH)
# VHH: EVQLVESGGGLVQAGGSLRLSCSVTGRTFNKYVMGWFRQAPGNDREFVAAITSRDGPTYYADSVKGRFTISGDNTKNKIFLQMNSLMPEDTAVYYCAIDEDLYHYSSYHFTRVDLYHYWGQGTQVTVSS
# B9: VEGFBII08E06 (VHH)
# VHH: EVQLVESGGGLVQPGGSLRLSCAASGSIVRSDVMGWYRQAPGKQRELVAFIRSLGSTYYAGSVKGRFTISRDDAANTVYLQMNNLKPEDTAVYYCNARFSGESYWGQGTPVTVSS
# B10: VEGFBII12C04 (VHH)
# VHH: B9 VHH with D73N
# B11: VEGFBII09A09 (VHH)
# VHH: EVQLVESGGGLVQPGGSLRLSCVASGIRFMSMAWYRQAPGKHRELVARISSEGTTAYVDSVKGRFTISRDNSKNTVYLQMNSLKAEDTAVYYCNTFSSRPNPWGAGTTVTVSS
# B12: VEGFBII86C11 (VHH)
# VHH: EVQLVESGGGLVQAGDSLRLSCTASGRTFNSYAMGWFRQAPGKERESVAHINRSGSSTYYADSVKGRFTISRDNAKNTVYLQLNSLKPEDTAVYYCAAGRYYSSDGVPSASFNYWGQGTQVTVSS
# B13: VEGFBII86G10 (VHH)
# VHH: EVQLVESGGGLVQAGGSLRLSCAASGRTFNTYTMGWFRQTPGTEREFVAAIRWTVNITYYADSVKGRFTISRDIVKNTVYLQMNSLKPEDTAVYYCAAQTSAPRSLIRMSNEYPYWGQGTQVTVSS
# B14: VEGFBII88E02 (VHH)
# VHH: EVQLVESGGGLVQPGGSLRLSCVASGFRLDDYAIGWFRQAPGKEREAVSCISSSDTSIDYTNSVKGRFTFSRDNAKNTVYLQMNSLKPEDTAVYYCAAAFRCSGYELRGFPTWGQGTQVTVSS
# B15: VEGFBII04B08 (VHH)
# VHH: EVQLVESGGGLVQPGGSLRLSCAASGSAVGDITVAWYRQAPGIQRQLVATITPSGYTYYWDFVKGRFTISRDNSKNIVYLQMNSLKPEDTAAYYCNTQFYWGQGTQVTVSS
# B16: VEGFBII09D05 (VHH)
# VHH: EVQLVESGGGLVQPGDSLRLSCAASGLSFSRYGMGWFRQAPGKEREFVIAISEYDNVYTADSVRGRFTISRDNSKSTVYLQMNSLKSEDTAVYYCAASPTILLSTDEWYKYWGRGTQVTVSS
# B17: VEGFBII39H11 (VHH)
# VHH: EVQLVESGGGLVQAGGSLRLSCAASGRTFSAYDMGWFRQAPGKEREFVAVISWTGGMTYYADSVKGRFTISRDKAKNTVSLQMNSLKPEDTAVYYCAVDRRRTYSRWRYYTGVNEYEYWGQGTQVTVSS
# B18: VEGFBII42F10 (VHH)
# VHH: B17 VHH with T54S, Y59D, D73E, K74N, V79Q, S80F, D99G, T103A, E117D
# B19: VEGFBII37F09 (VHH)
# VHH: B17 VHH with A14T, T54S, K65Q, K74N, N77S, S80Y, L86P, T103A, E115D, Y118F
# B20: VEGFBII41D11 (VHH)
# VHH: B17 VHH with V5M
# B21: VEGFBII41B06 (VHH)
# VHH: B17 VHH with G56D, V98A
# B22: VEGFBII36C08 (VHH)
# VHH: B17 VHH with G55N, G56S, K74N, S80Y, Y109F, E115D, E117D
# B23: VEGFBII38A06 (VHH)
# VHH: B17 VHH with T54S, K74N, S80Y, T103L, E115D, E117D
# B24: VEGFBII12E10 (VHH)
# VHH: EVQLVESGGGLAQAGGSLRLSCTASGRTFNNYVMGWFRQAPGNEREFVAAITSTNGPTYYADSVKGRFTISGDNTKNKVFLQMDSLRPEDTAVYYCAIDEDLYHYSSYHYTRVALYHYWGQGTQVTVSS
# B25: VEGFBII16F11 (VHH)
# VHH: EVQLVESGGGLVQAGGSLRLSCAASGRTSSGYDMGWFRQAPGKEREFVTAITWSGGSTYSPDSVKGRFTISRDNAKNTVYLQMNNLTPEDTAVYYCASGRIWRSRDYDSEKYYDIWGHGTQVTVSS
# B26: VEGFBII88B02 (VHH)
# VHH: EVQLVESGGGLVQPGGSLRLSCTASGLNLDDYAIGWFRQAPGKEREGVSCISSYDSVTYYADHVKGRFTISRDSAKNTLYLQMNSLSIEDTGVYYCAAEREQLRRRESPHDELLRLCFYGMRYSGKGTLVTVSS
# B27: VEGFBII88A01 (VHH)
# VHH: KVQLVESGGGLVQAGGSLRLSCAASERTFSNYAMDWFRQAPGKEREFVAAITRSGGGTYYADSVKGRFTISRDNAKNTVYLQMNSLKPEDTAVYYCAATRSSTIVVGVGGMEYWGKGTLVTVSS
# B28: VEGFBII86G08 (VHH)
# VHH: EVQLVESGGGLMQTGDSLRLSCAASGLRFTSTNMGWFRQGPGKEREFVAAITLSGTTYYAEAVKGRFTISRDNDKNTVALQMNSLKPEDTAVYYCGADPSYYSTSRYTKATEYDYWGQGTQVTVSS
# B29: VEGFBII08E07 (VHH)
# VHH: EVQLVESGGGLAQAGGSLRLSCTTSGLTFSSYYMGWFRQAPGKEREFVATISWNKISTIYTDSVKGRFTVSRDNNKNTVYLQMNSLKPEDTAVYYCAADASRPTLRIPQYWGQGTQVTVSS
# B30: VEGFBII86F11 (VHH)
# VHH: EVQLVESGGGLVQAGDSLRLSCFTSARTFDTWAMAWFRQAPGKEREFISAISWSGSMTYYTDSVKGRFIISRDNAQNTLFLQMNNTAPEDTAVYYCAAKTVDYCSAYECYARLEYDYWGRGAQVTVSS
# B31: VEGFBII11C11 (VHH)
# VHH: EVQLVESGGGLVQAGGSLMLSCAASGRALSSYAIGWFRQAPGREREFVARISWSGANTYYADSVKGRFTISRGNAKNTVYLQMNSLKPEDTAAYYCAAQTTSKYDNYDARAYGYWGQGTQVTVSS
# B32: VEGFBII08F07 (VHH)
# VHH: EVQLVESGGGLVQAGGSLRLSCAVSGSTFGLYAMGWFRQAPGREREFLSAITWSAGDTQYADSVKGRFTISRDNARNTVNLQMNGLKPEDTAVYYCAGRQWGGTYYYHGSYAYWGQGTQVTVSS
# B33: VEGFBII12G04 (VHH)
# VHH: B32 VHH with A14S, G16D, S27N, L48V, Y113W
# B34: VEGFBII11G09 (VHH)
# VHH: EVQLVESGGGLVQAGGSLRLSCAASTSIYSITVMAWFRQAPGKEREFVAAITWSAPTTYSADSVKGRFTISRDNAKNTVYLQMNSLKPEDSAIYYCAADRFKGRSIVTRSDYRYWGQGTQVTVSS
# B35: VEGFBII07A06 (VHH)
# VHH: B34 VHH with A24V, T32S, E46A, S60Y, M83T
# B36: VEGFBII11F10 (VHH)
# VHH: B34 VHH with T57S, T58S, S60Y, M83V
# B37: VEGFBII07A03 (VHH)
# VHH: B34 VHH with R45S, T57S, T58S, S60Y, R113K
# Molecular target: T1, recombinant human VEGF165 (human, UniProt P15692-4 27-191)
# T1 construct: also called hVEGF165; rhVEGF165
# Assay: ELISA screen, periplasmic extract on coated hVEGF165
# Description: Wells are blocked with a casein solution (1%). After addition of typically a 10-fold dilution of the periplasmic extracts, VHH binding is detected using a mouse anti-myc (Roche) and an anti-mouse-HRP conjugate (DAKO). Clones showing ELISA signals of >3-fold above background are considered as VEGF binding VHHs.
# T1 sequence (P15692 other isoform, or with tags, fused parts or gaps limits assumed): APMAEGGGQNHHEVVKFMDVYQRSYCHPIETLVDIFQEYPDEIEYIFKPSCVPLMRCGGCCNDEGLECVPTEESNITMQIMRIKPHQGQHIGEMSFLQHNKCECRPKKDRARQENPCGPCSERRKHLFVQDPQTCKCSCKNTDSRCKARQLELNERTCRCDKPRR
row,binding result,Binder
1,binds,B1
2,binds,B2
3,binds,B3
4,binds,B4
5,binds,B5
6,binds,B6
7,binds,B7
8,binds,B8
9,binds,B9
10,binds,B10
11,binds,B11
12,binds,B12
13,binds,B13
14,binds,B14
15,binds,B15
16,binds,B16
17,binds,B17
18,binds,B18
19,binds,B19

row,binding result,Binder
1,binds,B20
2,binds,B21
3,binds,B22
4,binds,B23
5,binds,B24
6,binds,B25
7,binds,B26
8,binds,B27
9,binds,B28
10,binds,B29
11,binds,B30
12,binds,B31
13,binds,B32
14,binds,B33
15,binds,B34
16,binds,B35
17,binds,B36
18,binds,B37
